Assay results as given in patent US8008547B2, “Glyphosate-N-acetyltransferase (GAT) genes” (E.I. duPont de Nemours, priority 2000, dated 2011).
Where a chain is given by its changes, count along the chain named.

B1: SEQ ID NO: 272: GAT polypeptide (protein)
chain: MIEVKPINAEDTYEIRHRILRPNQPLEACKYETDLLGGTFHLGGYYRGKLVSIASFHQAEHSELEGQKQYQLRGMATLEEYREQKAGSTLIRHAEELLRKKGADLLWCNARTSASGYYKKLGFSEQGEVYDIPPVGPHILMYKKLT
modifications: 10_17F6
notes: GAT polypeptide
B2: SEQ ID NO: 423: GAT polypeptide (protein)
chain: B1 chain with E27D, V51I, S62P, E80G
modifications: 9_15D5
notes: GAT polypeptide
B3: SEQ ID NO: 419: GAT polypeptide (protein)
chain: B1 chain with K30M, V51I, S62P, E80G, A86V, E128G
modifications: 7_5C7
notes: GAT polypeptide
B4: SEQ ID NO: 434: GAT polypeptide (protein)
chain: B1 chain with N8T, V51I, S62P, E80G, V135T
modifications: 9_8H1
notes: GAT polypeptide
B5: SEQ ID NO: 433: GAT polypeptide (protein)
chain: B1 chain with K30M, V51I, H57N, S62P, E80G
modifications: 9_4H8
notes: GAT polypeptide
B6: SEQ ID NO: 274: GAT polypeptide (protein)
chain: B1 chain with S62P, Q67R, E80G, V135T
modifications: 10_1H3
notes: GAT polypeptide
B7: SEQ ID NO: 422: GAT polypeptide (protein)
chain: B1 chain with V4A, K30M, S62T
modifications: 9_13F1
notes: GAT polypeptide
B8: SEQ ID NO: 425: GAT polypeptide (protein)
chain: B1 chain with K30M, L35M, G37R, T39A, V51I, S62P, R82H, D131N, I132T
modifications: 9_15H3
notes: GAT polypeptide
B9: SEQ ID NO: 417: GAT polypeptide (protein)
chain: B1 chain with K30M, V51I, E80G, E128G
modifications: 7_2A11
notes: GAT polypeptide
B10: SEQ ID NO: 273: GAT polypeptide (protein)
chain: B1 chain with E128G
modifications: 10_18G9
notes: GAT polypeptide
B11: SEQ ID NO: 428: GAT polypeptide (protein)
chain: B1 chain with K30M, V51I, S62P, E80G, E125D
modifications: 9_21C8
notes: GAT polypeptide
B12: SEQ ID NO: 421: GAT polypeptide (protein)
chain: B1 chain with G37R, T39A, V135T
modifications: 9_13F10
notes: GAT polypeptide
B13: SEQ ID NO: 436: GAT polypeptide (protein)
chain: B1 chain with K30M, R47Q, V51I, Q58N, E80G, A114V, K119E, T146A
modifications: 9C6
notes: GAT polypeptide
B14: SEQ ID NO: 429: GAT polypeptide (protein)
chain: B1 chain with S62P, E80G, I132L, V135T
modifications: 9_22B1
notes: GAT polypeptide
B15: SEQ ID NO: 427: GAT polypeptide (protein)
chain: B1 chain with I19V, K30M, K49E, S62P, E80G, E128G
modifications: 9_20F12
notes: GAT polypeptide
B16: SEQ ID NO: 420: GAT polypeptide (protein)
chain: B1 chain with K30M, V51I, S62P, E80G, V135I
modifications: 7_9C9
notes: GAT polypeptide
B17: SEQ ID NO: 424: GAT polypeptide (protein)
chain: B1 chain with K30M, S62P, E80G, E96A, I132T
modifications: 9_15D8
notes: GAT polypeptide
B18: SEQ ID NO: 430: GAT polypeptide (protein)
chain: B1 chain with F40L, S62P, E80G, E83G, E128G
modifications: 9_23A10
notes: GAT polypeptide
B19: SEQ ID NO: 426: GAT polypeptide (protein)
chain: B1 chain with K30M, V51I, S62P, E65V, E80G
modifications: 9_18H2
notes: GAT polypeptide
B20: SEQ ID NO: 435: GAT polypeptide (protein)
chain: B1 chain with T12A, G38S, V51I, S62P
modifications: 9_9H7
notes: GAT polypeptide
B21: SEQ ID NO: 437: GAT polypeptide (protein)
chain: B1 chain with V51I, Q58K, Q67E, K68E, E80G, A114V, V135I
modifications: 9H11
notes: GAT polypeptide
B22: SEQ ID NO: 418: GAT polypeptide (protein)
chain: B1 chain with V51I, S62P, E80G
modifications: 7_2D7
notes: GAT polypeptide
B23: SEQ ID NO: 432: GAT polypeptide (protein)
chain: B1 chain with F40L, V51I, S62P, E80G, L106I
modifications: 9_4H10
notes: GAT polypeptide
B24: SEQ ID NO: 431: GAT polypeptide (protein)
chain: B1 chain with G37R, T39A, V51I, E80G, E96A, V135T
modifications: 9_24F6
notes: GAT polypeptide
B25: SEQ ID NO: 440: GAT polypeptide (protein)
chain: MLEVKPINAEDTYELRHRILRPNQPIEACMYETDLLRGAFHLGGFYRGKLISIASFHQAEHSELQGQKQYQLRGMATLEGYRDQKAGSSLIKHAEQLLRKRGADLLWCNARTSASGYYKKLGFSEQGEVFDTPPVGPHILMYKRIT
modifications: 0_5B3
notes: GAT polypeptide
B26: SEQ ID NO: 446: GAT polypeptide (protein)
chain: B25 chain with L2I, D11E, Q65E, K92R, R101K, D104N, L105M, S113T, V129I
modifications: 0_5D7
notes: GAT polypeptide
B27: SEQ ID NO: 441: GAT polypeptide (protein)
chain: B25 chain with P6L, I26L, E63D, Q65E, Y81F, Q96E, L97I, D104N
modifications: 0_5B4
notes: GAT polypeptide
B28: SEQ ID NO: 443: GAT polypeptide (protein)
chain: B25 chain with L2I, R18K, I26L, E63G, D83E, L90I, Q96E, L97I, R101K, V129I
modifications: 0_5C4
notes: GAT polypeptide
B29: SEQ ID NO: 438: GAT polypeptide (protein)
chain: MIEVKPINAEDTYELRHKILRPNQPIEACMYESDLLRGAFHLGGFYRGKLISIASFHQAEHSDLEGQKQYQLRGMATLEGYRDQKAGSTLIKHAEEILRKRGADMLWCNARTTASGYYKKLGFSEQGEIFDTPPVGPHILMYKRLT
modifications: 0_4B10
notes: GAT polypeptide
B30: SEQ ID NO: 444: GAT polypeptide (protein)
chain: B25 chain with L2I, T33S, E63D, D83E, S89T, K92R, K120R, I145L
modifications: 0_5D11
notes: GAT polypeptide
B31: SEQ ID NO: 439: GAT polypeptide (protein)
chain: B29 chain with R47G, E96Q, I97L, T113S, I129V, D131E, R144K, L145I
modifications: 0_5B11
notes: GAT polypeptide
B32: SEQ ID NO: 442: GAT polypeptide (protein)
chain: B29 chain with E65Q, T89S, K92R, E96Q, M105L, T113S
modifications: 0_5B8
notes: GAT polypeptide

Assay: Standard protocol for determination of kcat and KM (continuous spectrophotometric assay, Acetyl CoA hydrolysis at 235 nm)
Type: biochemical
Conditions: purified protein; about 23° C.; 20 mM HEPES pH 6.8, 10% ethylene glycol, 0.2 mM acetyl CoA
Description: KM was calculated from the initial reaction rates obtained from concentrations of glyphosate ranging from 0.125 to 10 mM, using the Lineweaver-Burke transformation of the Michaelis-Menten equation. kcat/KM was determined by dividing the value determined for kcat by the value determined for KM.
Using this methodology, kinetic parameters for a number of GAT polypeptides exemplified herein were determined. For example, the kcat, KM and kcat/KM for the GAT polypeptide corresponding to SEQ ID NO:445 have been determined to be 322 min^−1, 0.5 mM and 660 mM^−1 min^−1, respectively, using the assay conditions described above. The kcat, KM and kcat/KM for the GAT polypeptide corresponding to SEQ ID NO:457 have been determined to be 118 min^−1, 0.1 mM and 1184 mM^−1 min^−1, respectively, using the assay conditions described above. The kcat, KM and kcat/KM for the GAT polypeptide corresponding to SEQ ID NO:300 have been determined to be 296 min^−1, 0.65 mM and 456 mM^−1 min^−1, respectively, using the assay conditions described above. One of skill in the art can use these numbers to confirm that a GAT activity assay is generating kinetic parameters for a GAT suitable for comparison with the values given herein. For example, the conditions used to compare the activity of GATs should yield the same kinetic constants for SEQ ID NO: 300, 445 and 457 (within normal experimental variance) as those reported herein, when the conditions are used to compare a test GAT with the GAT polypeptides exemplified herein. Kinetic parameters for a number of GAT polypeptide variants were determined according to this methodology and are provided in Table 3.
B1 showed a Kcat of 0.798 s⁻¹.
B2 gave a Kcat of 0.46 s⁻¹.
In the case of B3, the Kcat is reported as 0.745 s⁻¹.
B4 gave a Kcat of 1.25 s⁻¹.
In the case of B5, the Kcat is reported as 0.785 s⁻¹.
With B6 the Kcat was 1.27 s⁻¹.
B7 gave a Kcat of 0.527 s⁻¹.
Molecule B8 has a Kcat of 1.14 s⁻¹.
For B9, the Kcat was 0.78 s⁻¹.
B10 gave a Kcat of 0.4 s⁻¹.
In the case of B11, the Kcat is reported as 0.477 s⁻¹.
In the case of B12, the Kcat is reported as 0.578 s⁻¹.
With B13 the Kcat was 0.217 s⁻¹.
Molecule B14 has a Kcat of 0.835 s⁻¹.
Work on B15 yielded a Kcat of 0.63 s⁻¹.
B16 gave a Kcat of 1.08 s⁻¹.
B17 gave a Kcat of 1.788 s⁻¹.
B18 showed a Kcat of 0.35 s⁻¹.
Molecule B19 has a Kcat of 0.417 s⁻¹.
For B20, the Kcat was 0.467 s⁻¹.
For B21, the Kcat was 0.067 s⁻¹.
Work on B22 yielded a Kcat of 0.915 s⁻¹.
With B23 the Kcat was 1.688 s⁻¹.
Work on B24 yielded a Kcat of 0.875 s⁻¹.
Work on B25 yielded a Kcat of 2.38 s⁻¹.
Molecule B26 has a Kcat of 4.07 s⁻¹.
For B27, the Kcat was 3 s⁻¹.
B28 showed a Kcat of 3.42 s⁻¹.
B29 gave a Kcat of 3.17 s⁻¹.
B30 showed a Kcat of 3.73 s⁻¹.
With B31 the Kcat was 3.65 s⁻¹.
Work on B32 yielded a Kcat of 2.38 s⁻¹.

Same assay, conditions: purified protein; about 23° C.; pH 6.8; 0.2 mM acetyl CoA; glyphosate 0.125 to 10 mM
B1 gave a Km of 1400 µM.
With B2 the Km was 1200 µM.
For B3, the Km was 1000 µM.
In the case of B4, the Km is reported as 1700 µM.
B5 showed a Km of 600 µM.
B6 showed a Km of 1900 µM.
With B7 the Km was 1100 µM.
With B8 the Km was 1900 µM.
Molecule B9 has a Km of 1100 µM.
For B10, the Km was 1200 µM.
In the case of B11, the Km is reported as 1200 µM.
Molecule B12 has a Km of 700 µM.
B13 gave a Km of 2500 µM.
In the case of B14, the Km is reported as 1400 µM.
In the case of B15, the Km is reported as 1000 µM.
B16 showed a Km of 1000 µM.
With B17 the Km was 1100 µM.
Molecule B18 has a Km of 1000 µM.
B19 gave a Km of 1100 µM.
B20 gave a Km of 700 µM.
For B21, the Km was 2300 µM.
B22 showed a Km of 1100 µM.
Molecule B23 has a Km of 1500 µM.
Work on B24 yielded a Km of 900 µM.
In the case of B25, the Km is reported as 390 µM.
With B26 the Km was 1100 µM.
In the case of B27, the Km is reported as 600 µM.
For B28, the Km was 670 µM.
In the case of B29, the Km is reported as 680 µM.
Work on B30 yielded a Km of 670 µM.
B31 gave a Km of 540 µM.
With B32 the Km was 270 µM.
